# Reference: patent US20150315569A1, “METHOD FOR SCREENING A NUCLEIC ACID-PROGRAMMED SMALL MOLECULE LIBRARY” (The Board of Trustees of the Leland Stanford Junior …, priority 2014, published 2015)
# Legend:
# [1] = molecular target: T1, protein kinase A (Mus musculus, UniProt P05132); assay: Selection for protein kinase A substrates from the DNA-programmed peptide library; gene/peptide enrichment by Illumina sequencing; assay type: biochemical, murine; conditions: for LTFE: In (total fold enrichment) after four rounds: after four rounds of PKA substrate selection, kinase-treated vs control population; for Rank: position on list of peptides ranked by fold enrichment: calculated by summing reads over the 1296 genes encoding each peptide, peptide-DNA conjugates
# T1 construct: purchased New England Biolabs P6000L
# Procedure: Programmed library synthesis was carried out by a series of DNA-directed library splitting steps followed by chemical coupling steps. For the splitting steps, the ssDNA library was hybridized to an anticodon array overnight at 37° C. using a mesofluidic hybridization pump (see, e.g., Weisinger et al. (2012) PLoS ONE, 7, e28056). The anticodon array with bound DNA was then mounted into a plate adapter device which uses rubber gaskets to form an isolated liquid channel above and below each array feature. The adapter device was placed on top of a 384-well polypropylene filterplate loaded with 5 μl aliquots of DEAE sepharose resin. DNA was eluted from each feature of the anticodon array onto the DEAE resin in the corresponding well of the filterplate by application of a denaturing buffer (10 mM NaOH with 1 mM EDTA and 0.005% Triton X-100) followed by gentle centrifugation of the stack (140×g for 1 minute). The DEAE resin in the filter plate was then washed three times with 85 μl H2O and three times with 85 μl dry methanol. Peptide couplings were performed using EDC and HOAt in methanol and DMF (see, e.g., Halpin et al., (2004) PLoS Biology, 2, E174). Following the synthetic steps, the filterplate was placed on top of a 384-well polypropylene microtiter plate, and DNA was eluted from the DEAE resin by application of a high salt buffer (1.5 M NaCl, 50 mM NaOH, 1 mM EDTA, and 0.005% Triton X-100) followed by gentle centrifugation. The eluted DNA was pooled, concentrated and buffer exchanged into hybridization buffer using a centrifugal filter device with a 10,000 Da molecular weight cut-off (GE Healthcare). BSA and tRNA were added to 0.5 mg/ml each. The sample was diluted to 3 ml with hybridization buffer and applied to another anticodon array. Following the final step of the chemical synthesis, the eluted DNA was split by hybridization for 3 hours at 37° C. to a pair of anticodon columns derivatized with the VE001 and VE002 anticodon sequences. The two halves of the library were concentrated with n-butanol extractions, precipitated with isopropanol, and subjected to kinase-substrate/mock selections respectively.
# Translated libraries were incubated in PKA buffer (NEB) overnight at 30° C. with 10,000 units of protein kinase A and 1 mM ATPγS. For the selection between the third and fourth generations, the incubation was shortened to 1 hour at 30° C. Mock selections were performed identically, with the enzyme replaced by a 50% glycerol solution. After incubation, the crude reactions were diluted 1.5-fold and adjusted to 100 mM NaOAc pH 5.2 and 25% dimethyl formamide. EZ-Link iodoacetyl-LC-biotin (Pierce Thermo Fisher Scientific, catalog #21333) was added to 600 μM. After 3 hours in the dark at 25° C., the enzyme-treated library was cleaned up by extraction with phenol: chloroform and n-butanol, and then precipitation with isopropanol. The library was resuspended in 27.5 μl bind buffer (10 mM Tris pH 7.4, 1 mM EDTA, 1 M NaCl), and 1.25 mg/ml tRNA and 0.25 mg/ml BSA were added. The library was then incubated with 15 μl of μMACS streptavidin microbeads (MiltenyiBiotec, 130-074-101) overnight at room temperature. The microbeads were purified and washed over MACS columns according to the manufacturer's instructions, and the purification process was repeated a second time. DNA was amplified directly off of the streptavidin beads by PCR.
# 25 pmol of amplified DNA was used as a template in a PCR reaction that appended Illumina adaptor sequences. The PCR product was quantified on an Agilent 2100 Bioanalyzer, and a 10 nM solution was submitted to the Stanford Functional Genomics Facility for sequencing using custom primers. Paired-end 150-bp reads were obtained on a MiSeqIllumina Sequencer.
# The sequencing data were processed using scripts written in either AWK or MATLAB. […]
# [2] = system: T2, RRSFV (SEQ ID NO: 2)
# T2 sequence: RRSFV
# [3] = system: T3, RRASL (SEQ ID NO: 3)
# T3 sequence: RRASL
# [4] = system: T4, RMSF (SEQ ID NO: 7)
# T4 sequence: RMSF
# [5] = system: T5, RRFSV (SEQ ID NO: 4)
# T5 sequence: RRFSV
# [6] = system: T6, RRSF (SEQ ID NO: 8)
# T6 sequence: RRSF
# [7] = system: T7, RRMSV (SEQ ID NO: 5)
# T7 sequence: RRMSV
# [8] = system: T8, RRMTV (SEQ ID NO: 6)
# T8 sequence: RRMTV
# [9] = system: T9, Kemptide heptapeptide LRRASLG (SEQ ID NO: 10)
# T9 sequence: LRRASLG
# [10] = system: T10, RRMS (SEQ ID NO: 9)
# T10 sequence: RRMS
Substance,LTFE: In (total fold enrichment) after four rounds [1],Rank: position on list of peptides ranked by fold enrichment ([1]; fourth generation),further results
RRSFL,–,–,peptide enrichment in the fourth generation library (result in words) ([1]; reads of the 6^4 (1296) genes per peptide summed): most highly enriched peptide
RRMS,3.0,1846,–
RRMTV,8.4,95,–
RRFSV,10.2,33,–
RRSFV,11.1,7,"median enrichment of the genes encoding the peptide ([1]; fourth generation, single genes (one codon per amino acid model)): 175,000 fold"
RRASL (sythetic peptide),10.6,20,–
catalytic subunit of murine cAMP-activated protein kinase A,–,–,Rel. kcat/Km (relative to Kemptide) [2]: 0.16; Rel. kcat/Km (relative to Kemptide) [3]: 0.27; Rel. kcat/Km (relative to Kemptide) [4]: 0.0028; Rel. kcat/Km (relative to Kemptide) [5]: 4.1; Rel. kcat/Km (relative to Kemptide) [6]: 0.05; Rel. kcat/Km (relative to Kemptide) [7]: 2.2; Rel. kcat/Km (relative to Kemptide) [8]: 0.031; Rel. kcat/Km (relative to Kemptide) [9]: 1; Rel. kcat/Km (relative to Kemptide) [10]: 0.028
RMSF,7.6,147,–
RRSF,6.3,253,–
RRMSV,9.5,51,–
